Drawing on paper PMC12771579, “Distinct classes of gut bacterial molybdenum-dependent enzymes produce urolithins” (Proceedings of the National Academy of Sciences of the …, 2025), this text covers Km and kcat for four compounds.

What all share (experiment): continuous absorbance assay, methyl viologen, initial rates
Holding throughout (conditions): 200 µM methyl viologen, 100 µM sodium dithionite, 20 mM MOPS, 300 mM NaCl, pH 7.0, 30 °C, anaerobic

The test system of data set [1] is T1, Eadh3.
T1 construct: recombinant, expressed in G. urolithinfaciens, purified; bis-MGD enzyme without signal peptide; tag only in SI
It is filed as biochemical, Ellagibacter isourolithinifaciens. The text has this: continuous absorbance assay, methyl viologen, initial rates on Eadh3 | Eadh3 converted urolithin C to isourolithin A via C8-OH dehydroxylation | urolithin M6 was metabolized more readily by Eadh2 than by Eadh3

The test system of data set [2] is T2, O=c1oc2c(O)c(O)ccc2c2c(O)c(O)c(O)cc12.
T2 construct: recombinant, cumate-inducible expression in G. urolithinfaciens (called native host), purified anaerobically; bis-MGD enzyme without signal peptide; tag only in SI
Format: biochemical, Gordonibacter urolithinfaciens. The text has this: continuous absorbance assay, methyl viologen, initial rates on Eadh1 | Eadh1 (C4-OH dehydroxylation of urolithin M5 to urolithin M6) | can accept urolithin D as a substrate to produce urolithin C

Data set [3] has as its system T3, O=c1oc2cc(O)ccc2c2c(O)c(O)c(O)cc12.
T3 construct: recombinant, cumate-inducible expression in G. urolithinfaciens (called native host), purified anaerobically; bis-MGD enzyme without signal peptide; tag only in SI
It is filed as biochemical, Gordonibacter urolithinfaciens.

For data set [4], the system named is T2, O=c1oc2c(O)c(O)ccc2c2c(O)c(O)c(O)cc12. Format: biochemical, Gordonibacter urolithinfaciens. This is another data set of the same source.

In the case of `O=c1oc2cc(O)ccc2c2cc(O)c(O)cc12` [urolithin C], the Km in data set [1] came to 19.9 ± 2.1 µM.

In the case of Eadh1 (Gordonibacter sp. 28C), in data set [2], the Km is 11.8 ± 2.5 µM and the kcat amounted to 8.60 ± 0.49 s⁻¹.

In the case of Eadh2 (Gordonibacter sp. 28C), in data set [3], the Michaelis constant (Km) turned out to be 13.8 ± 2.9 µM and the kcat was 0.65 ± 0.03 s⁻¹. In addition, in data set [4], the Km stood at 34.1 ± 6.4 µM and the kcat was 0.42 ± 0.02 s⁻¹.

As to `O=c1oc2cc(O)ccc2c2c(O)c(O)c(O)cc12` [urolithin M6], in data set [1], the Km was determined as 78.4 ± 10.6 µM.

In general, Km refers to the substrate concentration at which the rate is half of its maximum. The term kcat denotes the maximal rate divided by the concentration of active sites.
